# Measurements as given in the supplement of paper PMC7877785.
# ± gives the uncertainty stated by the source.
# Assay: self-splicing fitness, log relative to wild type (ln ratio); higher = more splicing; Tetrahymena group I intron in knt gene, E. coli kanamycin selection, DiMSum; sequences stand for … in CUCUCU…GGAGGGAAAAGUUAUCAGGCAUGCACCUGGUAGCUAGUCUUUAAACCAAUAGAUUGCAUCGGUUUAAAAGGCAAGACCGUCAAAUUGCGGGAAAGGGGUCAACAGCCGUUCAGUACCAAGUCUCAGGGGAAACUUUGAGAUGGCCUUGCAAAGGGUAUGGUAAUAAGCUGACGGACAUGGUCCUAACCACGCAGCCAAGUCCUAAGUCAACAGAUCUUCUGUUGAUAUGGAUGCAGUUCACAGACUAAAUGUCGGUCGGGGAAGAUGUAUUCUUCUCAUAAGAUAUAGUCGGACCUCUCCUUAAUGGGAGCUAGCGGAUGAAGUGAUGCAACACUGGAGCCGCUGGGAACUAAUUUGUAUGCGAAAGUAUAUUGAUUAGUUUUGGAGUACUCGUGGUCG
# Summary of the method: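 Fitness was computed with DiMSum as the error-weighted combination of replicate fold changes, kanamycin versus none, each normalised to wild type. The library randomised all eight intron nucleotides of the P1ex region, with the intron placed in the knt kanamycin-resistance gene on pET-22b(+) in E. coli BL21(DE3). Six replicate transformations were grown overnight at 37°C or 30°C on LB agar with or without 25 μg/mL kanamycin, plus 100 μg/mL carbenicillin, 50 μM IPTG and 0.2% rhamnose. Pooled colonies were amplicon-sequenced on an Illumina HiSeq 2500.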
Sequence,self-splicing fitness (ln) (30 °C),self-splicing fitness (ln) (37 °C)
AAACAGCAAUAUUACGAAAU,-2.72 ± 0.13,-1.48 ± 0.13
UUGGAGCAAUAUUACGUUUG,-4.04 ± 0.25,-2.92 ± 0.28
CGCUAGCAAUAUUACGGCAA,-0.889 ± 0.099,-0.0297 ± 0.11
UCAAAGCAAUAUUACGUGGA,-1.49 ± 0.1,-1.6 ± 0.11
GGAAAGCAAUAUUACGGAAU,-2.55 ± 0.16,-1.1 ± 0.15
ACUGAGCAAUAUUACGCAGG,-3.15 ± 0.23,-1.14 ± 0.13
GGUCAGCAAUAUUACGUGUC,-0.998 ± 0.12,-0.0483 ± 0.13
CUCGAGCAAUAUUACGCCUA,,-0.858 ± 0.46
UGGAAGCAAUAUUACGCUUG,-3.54 ± 0.26,-2.53 ± 0.29
CUUGAGCAAUAUUACGGGCU,,-1.91 ± 0.25
GAUAAGCAAUAUUACGAGAA,,-1.38 ± 0.38
CGCUAGCAAUAUUACGAAGC,-1.15 ± 0.37,
AAGAAGCAAUAUUACGGUAU,-2.08 ± 0.073,-0.974 ± 0.084
GUCCAGCAAUAUUACGUGUG,-1.14 ± 0.064,-0.529 ± 0.068
CGAAAGCAAUAUUACGCGCG,-2.64 ± 0.16,-1.34 ± 0.17
CUACAGCAAUAUUACGGGUC,-4.01 ± 0.23,-2.44 ± 0.21
CUGCAGCAAUAUUACGUUAA,-3.5 ± 0.24,-3.02 ± 0.27
GGGAAGCAAUAUUACGGAGU,-2.86 ± 0.12,-2.05 ± 0.16
AAUAAGCAAUAUUACGGCUU,-0.403 ± 0.12,-0.12 ± 0.14
AGGCAGCAAUAUUACGUCUU,-4.07 ± 0.25,-2.58 ± 0.19
CGCAAGCAAUAUUACGAUCA,-1.58 ± 0.12,0.00155 ± 0.11
UAGCAGCAAUAUUACGGCAA,-0.772 ± 0.16,0.622 ± 0.19
UCCUAGCAAUAUUACGAAGA,-1.13 ± 0.12,0.123 ± 0.12
CCCUAGCAAUAUUACGGCUC,-4.27 ± 0.23,-1.75 ± 0.14
UACGAGCAAUAUUACGGACG,-2.32 ± 0.12,-1.24 ± 0.15

Sequence,self-splicing fitness (ln) (30 °C),self-splicing fitness (ln) (37 °C)
GUCUAGCAAUAUUACGAUCU,-1.57 ± 0.12,-0.315 ± 0.14
CCCGAGCAAUAUUACGUGUA,-3.33 ± 0.2,-2.97 ± 0.32
GAGCAGCAAUAUUACGCCCU,-0.964 ± 0.31,
UUCCAGCAAUAUUACGUGUA,-0.989 ± 0.058,-0.572 ± 0.064
AAUGAGCAAUAUUACGAGUU,-3.21 ± 0.28,-1.8 ± 0.31
CACGAGCAAUAUUACGCAUA,-3.1 ± 0.15,-2.61 ± 0.18
UGUAAGCAAUAUUACGUUGA,-2.71 ± 0.18,-1.28 ± 0.16
UGACAGCAAUAUUACGAGAU,-3.55 ± 0.23,-2.86 ± 0.26
AUAAAGCAAUAUUACGAGUU,-1.9 ± 0.081,-0.509 ± 0.085
UUUAAGCAAUAUUACGAUUA,-0.637 ± 0.1,-0.207 ± 0.11
UGCCAGCAAUAUUACGGACA,-0.325 ± 0.074,-0.394 ± 0.09
UCCCAGCAAUAUUACGAUUG,-3.56 ± 0.32,-3.17 ± 0.4
AUGCAGCAAUAUUACGGUGC,-3.79 ± 0.11,-3.02 ± 0.13
GAGCAGCAAUAUUACGCCGC,-1.63 ± 0.22,-2.43 ± 0.38
AGACAGCAAUAUUACGCACG,-2.11 ± 0.12,-0.922 ± 0.13
CUCUAGCAAUAUUACGUCGA,-4.25 ± 0.42,-0.879 ± 0.19
CCGAAGCAAUAUUACGUAAC,-4.94 ± 0.34,-1.67 ± 0.2
GUUGAGCAAUAUUACGGUUU,-4.2 ± 0.33,-2.73 ± 0.32
GCCCAGCAAUAUUACGCCCC,-1.48 ± 0.15,-0.245 ± 0.22
AUGUAGCAAUAUUACGGCUU,0.168 ± 0.095,0.71 ± 0.12
UUCCAGCAAUAUUACGCAAA,-1.42 ± 0.12,-0.0764 ± 0.13
CGCAAGCAAUAUUACGCUUU,-3.44 ± 0.21,-2.34 ± 0.21
CCAGAGCAAUAUUACGUUAG,-3.15 ± 0.097,-1.72 ± 0.097
UAAGAGCAAUAUUACGUCGG,-3.8 ± 0.29,-2.25 ± 0.27
